Measurements from patent US20160297892A1 (Novo Nordisk, published 2016).

Columns and labels:
[1] = target: T1, EGF domain 3 and 4 of recombinant human Protein S (human, UniProt P07225 201-286, limits assumed); assay: ELISA, calcium-free TBS;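 also: binding of mouse antibodies detected by ELISA with an HRP-conjugated goat anti-mouse IgG secondary and TMB substrate development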
T1 construct: domain: EGF domain 3 and 4; also called hEGF3-4
T1 sequence (looked up): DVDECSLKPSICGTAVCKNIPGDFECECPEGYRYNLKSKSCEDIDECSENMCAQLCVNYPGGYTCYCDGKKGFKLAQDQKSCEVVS
Experimental: (§1) After incubation and washing a HRP-labelled goat-anti-mouse IgG secondary antibody (Jackson) was added and the ELISA was developed after incubation and wash by addition of 3,3′,5,5′-Tetramethylbenzidine.

[2] = target: T2, EGF1-4 domains of human Protein S with C-terminal HPC4 tag (human, UniProt P07225 114-286, partial hydroxylation of Asn or Asp in the EGF domains (detected by MS)); assay: ELISA, recombinant antibody
T2 construct: also called hEGF1-4; human Protein S EGF1-4
T2 sequence: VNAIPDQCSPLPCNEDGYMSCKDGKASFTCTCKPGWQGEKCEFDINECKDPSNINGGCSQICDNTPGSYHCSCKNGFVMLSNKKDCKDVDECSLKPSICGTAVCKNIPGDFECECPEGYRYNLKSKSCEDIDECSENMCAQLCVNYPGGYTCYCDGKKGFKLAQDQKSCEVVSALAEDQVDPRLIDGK

[3] = target: T3, human Protein S (plasma derived) (human, UniProt P07225 42-676); assay: ELISA, recombinant antibody
T3 construct: Bought plasma-derived human Protein S (Haematologic Technologies or Enzyme Research Laboratories); also called Plasma PS; free Protein S
T3 sequence: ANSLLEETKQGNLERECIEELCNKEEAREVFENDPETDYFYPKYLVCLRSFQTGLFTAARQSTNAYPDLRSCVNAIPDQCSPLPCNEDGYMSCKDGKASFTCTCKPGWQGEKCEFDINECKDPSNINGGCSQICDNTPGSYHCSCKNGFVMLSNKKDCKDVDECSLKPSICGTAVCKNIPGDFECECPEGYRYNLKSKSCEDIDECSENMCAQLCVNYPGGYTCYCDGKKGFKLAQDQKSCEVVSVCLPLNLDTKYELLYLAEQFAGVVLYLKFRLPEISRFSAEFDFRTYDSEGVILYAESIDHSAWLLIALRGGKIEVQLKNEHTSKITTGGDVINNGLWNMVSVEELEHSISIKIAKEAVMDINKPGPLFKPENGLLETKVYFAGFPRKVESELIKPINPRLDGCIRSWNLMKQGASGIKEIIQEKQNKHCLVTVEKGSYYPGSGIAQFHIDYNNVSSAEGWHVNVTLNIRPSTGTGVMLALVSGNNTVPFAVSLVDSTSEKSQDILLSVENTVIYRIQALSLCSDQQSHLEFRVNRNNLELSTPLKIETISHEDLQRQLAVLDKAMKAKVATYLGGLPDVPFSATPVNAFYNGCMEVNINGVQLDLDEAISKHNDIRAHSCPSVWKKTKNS

[4] = target: T4, Gla-domain deleted recombinant human Protein S (human, UniProt P07225 114-676); assay: ELISA, recombinant antibody
T4 construct: also called hPS-dGla; desGla human Protein S
T4 sequence: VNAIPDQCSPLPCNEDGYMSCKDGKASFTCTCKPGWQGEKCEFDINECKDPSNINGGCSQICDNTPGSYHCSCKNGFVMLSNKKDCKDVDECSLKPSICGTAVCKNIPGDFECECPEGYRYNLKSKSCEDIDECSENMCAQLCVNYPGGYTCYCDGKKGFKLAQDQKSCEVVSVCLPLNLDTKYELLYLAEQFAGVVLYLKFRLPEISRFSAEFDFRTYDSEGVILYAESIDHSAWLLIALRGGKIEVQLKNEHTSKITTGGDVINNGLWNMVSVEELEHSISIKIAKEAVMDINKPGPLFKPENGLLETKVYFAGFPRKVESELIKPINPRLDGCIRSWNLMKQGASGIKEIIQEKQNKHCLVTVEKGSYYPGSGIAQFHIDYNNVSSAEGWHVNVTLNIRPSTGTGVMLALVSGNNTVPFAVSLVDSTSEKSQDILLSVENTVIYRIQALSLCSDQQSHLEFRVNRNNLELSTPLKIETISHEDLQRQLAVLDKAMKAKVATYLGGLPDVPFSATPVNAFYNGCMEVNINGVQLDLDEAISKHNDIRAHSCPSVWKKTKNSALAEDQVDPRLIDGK

[5] = target: T5, EGF domain 1 and 2 of recombinant human Protein S (human, UniProt P07225 114-200, limits assumed); assay: ELISA, calcium-free TBS;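 also: binding of mouse antibodies detected by ELISA with an HRP-conjugated goat anti-mouse IgG secondary and TMB substrate development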
T5 construct: domain: EGF domain 1 and 2; also called hEGF1-2
T5 sequence (looked up): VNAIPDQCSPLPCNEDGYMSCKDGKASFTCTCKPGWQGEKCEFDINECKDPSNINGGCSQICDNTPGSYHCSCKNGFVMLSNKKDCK
Experimental: as §1

[6] = target: T2, EGF1-4 domains of human Protein S with …; assay: HX-MS, 4 uM EGF1-4 with 2.4 uM mAb
Experimental: The HX experiments were performed on a nanoACQUITY UPLC System with HDX Technology (Waters Inc.) coupled to a Synapt G2 mass spectrometer (Waters Inc.). The Waters HDX system contained a Leap robot (H/D-x PAL; Waters Inc.) operated by the LeapShell software (Leap Technologies Inc/Waters Inc.), which performed initiation of the deuterium exchange reaction, reaction time control, quench reaction, injection onto the UPLC system and digestion time control. The Leap robot was equipped with two temperature controlled stacks maintained at 20° C. for buffer storage and HX reactions and maintained at 2° C. for storage of protein and quench solution, respectively. The Waters HDX system furthermore contained a temperature controlled chamber holding the pre- and analytical columns, and the LC tubing and switching valves at 0.5° C. A separately temperature controlled chamber holds the pepsin column at 25° C. […] The resulting peptides were trapped and desalted on a VanGuard pre-column BEH C18 1.7 μm (2.1×5 mm (Waters Inc.)). Subsequently, the valves were switched to place the pre-column inline with the analytical column, UPLC-BEH C18 1.7 μm (1×100 mm (Waters Inc.)), and the peptides separated using a 9 min gradient of 10-50% B delivered at 40 μl/min from the nanoAQUITY UPLC system (Waters Inc.). The mobile phases consisted of A: 0.1% formic acid and B: 0.1% formic acid in CH₃CN. […]

[7] = target: T3, human Protein S (plasma derived); assay: SPR (Biacore 3000), Protein S captured on phosphatidylserine vesicles on L1 chip, mAb 250 nM
[8] = target: T2, EGF1-4 domains of human Protein S with …; assay: ELISA, calcium-free TBS;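 also: binding of mouse antibodies detected by ELISA with an HRP-conjugated goat anti-mouse IgG secondary and TMB substrate development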
Experimental: as §1

[9] = target: T3, human Protein S (plasma derived); assay: ELISA, calcium-free TBS;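 also: binding of mouse antibodies detected by ELISA with an HRP-conjugated goat anti-mouse IgG secondary and TMB substrate development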
Experimental: as §1

[10] = target: T4, Gla-domain deleted recombinant human …; assay: ELISA, calcium-free TBS
Experimental: as §1

[11] = target: T1, EGF domain 3 and 4 of recombinant human …; assay: ELISA, recombinant antibody

B1: M-hProtS-6F138A3 monoclonal antibody (antibody, V domains shown)
VH: QVHLKESGPGLVAPSQNLSITCTVSGFSLTGYGVSWVRQPPGKGLEWLGMIWGDGTTDYNSTLKSRLSISKDNSKSQVFLKMNSLQIDDTARYYCARDPGAMDYWGQGTSVTVSS
VL: QIVLTQSPAIMSASPGEKVTITCSATSSVTYMHWFQQKPGTSPKLWIFSTSNLASGVPPRFSGSGSGTSYSLTISRMEAEDAATYYCQQRSSYPPTFGGGTKLEIKR
notes: Mouse IgG1, kappa; also called 6F138A1/A3
binding result [1]: no binding | binding result [2]: binds | binding result [3]: binds | binding result [4]: binds

B2: M-hProtS-6F170A2 monoclonal antibody (antibody, V domains shown)
VH: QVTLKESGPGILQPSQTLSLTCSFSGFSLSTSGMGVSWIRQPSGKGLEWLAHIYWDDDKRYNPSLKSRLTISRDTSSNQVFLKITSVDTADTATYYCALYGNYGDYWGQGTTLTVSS
VL: QIVLTQSPAIMSASPGEKVTMTCSASSSVSYMYWYQQKPGSSPRILIYDTSNLASGVPVRFSGSGSGTSYSLTISRMEAEDAATYYCQQWSSYPLTFGAGTKLELKR
notes: Mouse IgG1, kappa
binding result [5]: no binding | binding result [2]: binds | binding result [3]: binds | binding result [4]: binds

B3: 0322-0000-0114 (antibody, V domains shown)
VH: EVKLEESGGGLVQPGGSMKLSCAASGFTFSDAWMDWVRQSPEKGLEWVAEIRSKANNHATYYAESVKGRFTISRDDSKSGVYLQMNSLRPEDTGIYYCTLTTAFLFDYWGQGTTLTVSS
VL: QIALTQSPAIMSASPGEKVTMTCSVSSSVSYMHWYQQKPGSSPRLWIYDTSNLVSGVPGRFSGSGSGTSYSLTLSSMEAEDAATYYCQQYSGYLYTFGGGTKLEIKR
notes: also called murine-human chimeric antibody of 2F4A1
binding result [6]: binds | binding result [7]: binds

B4: M-hProtS-2F82A1 monoclonal antibody (antibody, V domains shown)
VH: QVQLQQPGTELVRPGASVKLSCKASGYTFTSYWMNWVQQRPEQGLEWIGRIDPYDTETHYNQKFEDKAILTVDKSSSTAYMQLSSLTSEDSAVYYCARWAGSSYAMDYWGQGTSVTVSS
VL: QIVLTQSPALMSASPGERVTMTCSASSSVSYMYWYQQKPRSSPKPWIYSTSNLASGVPARFSGSGSGTSYSLTISSMEAEDAATYYCQQWSSNPYTFGGGTKLEIKR
notes: Mouse IgG1, kappa; also called mAb 0017
binding result [8]: binds | binding result [9]: binds | binding result [10]: binds | binding result [11]: no binding

B5: M-hProtS-2F4A1 monoclonal antibody (antibody, V domains shown)
VH: EVKLEESGGGLVQPGGSMKLSCAASGFTFSDAWMDWVRQSPEKGLEWVAEIRSKANNHATYYAESVKGRFTISRDDSKSGVYLQMNSLRPEDTGIYYCTLTTAFLFDYWGQGTTLTVSS
VL: QIALTQSPAIMSASPGEKVTMTCSVSSSVSYMHWYQQKPGSSPRLWIYDTSNLVSGVPGRFSGSGSGTSYSLTLSSMEAEDAATYYCQQYSGYLYTFGGGTKLEIKR
notes: Mouse IgG1, kappa
binding result [8]: binds | binding result [9]: binds | binding result [10]: binds | binding result [11]: no binding

B6: M-hProtS-3F2A1 monoclonal antibody (antibody, V domains shown)
VH: EVQLQESGPSLVKPSQTLSLTCSVTGDSITSGYWNWIRKFPGNKLEYMGYISFSGSTYYNPSLKSRISITRDTSKNQYYLQLNSVTTEDTATYYCAREFAYWGQGTLVTVSA
VL: DIVLTQSPATLSVTPGDSVSLSCRASQSISNNLHWYQQKSHESPRLLIKFVSQSISGIPSRFSGSGSGTDFTLSINSVETEDFGMYFCQQSNSWPWTFGGGTKLEIKR
notes: Mouse IgG1, kappa
binding result [8]: binds | binding result [9]: binds | binding result [10]: binds | binding result [11]: no binding
